Molecular target: rHA1_(1-326), recombinant hemagglutinin HA1 fragment (residues 1-326) of influenza A virus H1N1 strain A/California/04/2009 (influenza A virus subtype H1N1 strain A/California/04/2009)
Assay: SEC

Question: Which percent of the protein as dimers and trimers does the source give for “rHA1_(1-326), recombinant hemagglutinin HA1 fragment (residues 1-326) of influenza A virus H1N1 strain A/California/04/2009 (domain or fragment)” here?
Answer: 70.5%

Reference: PMC6081378
